The values that follow come from patent US20090062180A1 (TEL AVIV UNIVERSITY FUTURE TECHNOLOGY DEVELOPMENT L P, published 2009).

Square brackets hold non-standard residues; d marks the D form. Ends that are not written are not given here. * marks the point of attachment. Myristoyl = CCCCCCCCCCCCCC(=O)*; pS = N[C@@H](COP(=O)(O)O)C(=O)O

In assay [1] the target is T1, Purified recombinant rabbit GSK-3β (glycogen synthase kinase-3β) (rabbit, UniProt A0A5F9DUX8 1-420). Put plainly: cell-based or functional assay.
For assay [2], the target named is T1, Purified recombinant rabbit GSK-3β …. Briefly: cell-based or functional assay. This is another data set of the same source.
The target in assay [3] is mitogen activated protein kinase (MAPK). Briefly: cell-based or functional assay.
In assay [4] the target is catalytic subunit of cAMP dependent protein kinase (PKA). Put plainly: cell-based or functional assay.
Assay [5] has as its target casein kinase-2 (CK-2). Put plainly: cell-based or functional assay.
The target in assay [6] is Cyclic dependent protein kinase, cdc2. Briefly: cell-based or functional assay.
Assay [7] concerns the target Protein kinase C-δ. Briefly: cell-based or functional assay.
The target of assay [8] is Protein kinase B (PKB). Briefly: cell-based or functional assay.
The target of assay [9] is T1, Purified recombinant rabbit GSK-3β …. Put plainly: Lineweaver-Burk analysis of the in vitro GSK-3 kinase assay; competitive against PGS-1 peptide substrate. The protocol: The results represent phosphate incorporation into PGS-1 peptide substrate (CPM). […] Each point is a mean of duplicate samples.
In vitro inhibition assays: Purified recombinant rabbit GSK-30 (Eldar-Finkelman et al., 1996) was incubated with peptide substrate PGS-1 ([…](p)EDEEE) (SEQ ID NO:15) and with a peptide inhibitor at indicated concentrations. The reaction mixture included Tris 50 mM (pH=7.3), 10 mM MgAc, ³²P[γ-ATP] (100 μM), 0.01% β-mercaptoethanol, and was incubated for 10 minutes at 30° C. Reactions were spotted on phosphocellulose paper (p81), washed with 100 mM phosphoric acid, and counted for radioactivity (as described in Eldar-Finkelman et al., 1996).

For assay [10], the target named is endogenous GSK-3 (in HEK 293 cells). Put plainly: cell-based or functional assay.

B1: Peptide No. 12 PAPPQS(p)P (peptide)
peptide: PAPPQ[pS]P
Consider B1, for which, in assay [1], the “Inhibitor functionality (IC50)” value is > 800 µM.

B2: Peptide No. 9 KEAPPAPPQS(p)P (L803) (peptide)
peptide: KEAPPAPPQ[pS]P
notes: also called peptide 9
For orientation: Ki means the dissociation constant of the complex between target and ligand, obtained from inhibition or displacement. Regarding B2, the “IC50 (in vitro GSK-3 kinase inhibition, PGS-1 substrate)” value in [2] is 150 µM. The “% Maximal activity (kinase activity with 200 µM L803)” value worked out at 106% in [3]; 86% in assay [4]; 117% in assay [5]; 90% in assay [6]; 111% in assay [7]; 91% in assay [8]. The Ki in [9] stood at 70 µM.

B3: L803-mts (N-Myristol-GKEAPPAPPQS(p)P) (peptide)
peptide: Myristoyl-GKEAPPAPPQ[pS]P
For B3, in assay [2], the “IC50 (comparative GSK-3β inhibition assay, PGS-1 substrate; FIG. 4)” value was 40 µM and the “IC50 (in vitro GSK-3 kinase inhibition, PGS-1 substrate; FIGS. 3a-b)” value came to 40 µM. Further, the “glycogen synthase activity in HEK 293 cells” value in [10] turned out to be 2.5 fold.
